Source: patent US10533050B2, “Methods and compositions for liver cancer therapy” (Institut National de la Sante et de la Recherche Medicale …, priority 2010, dated 2020)

Assays:
Assay type in all cases: cell-based
[1] = test system: side population cells of Huh7 cells; experiment: Spheroid formation of Huh7 side population cells under low adherence culture conditions; details: 5 nM doxorubicin, 9 days; FIG. 9
Description: The dye excluding side population cells of Huh7 cells were isolated as described in Example 8. Side population cells were then seeded into ultra low adherence 96-well plates (200 cells/well) in M11 medium, and grown for 9 days at 37° C. in the presence of control or anti-progastrin polyclonal antibodies (1 μg/ml), 5 nM doxorubicin (a chemotherapeutic agent used in certain liver cancer therapy), or DMSO (vehicle for doxorubicin) (15 wells per condition). The composition of M11 medium was as follows: DMEM/F12-Glutamax (Catalog #31331 Invitrogen); 20 ng/ml EGF (R&D systems); 10 ng/ml FGF (R&D systems); 20 microg/ml Insulin (Sigma); 1/100 dilution of N2 supplement (Catalog #P1510, Gibco); 2 μg/ml ciprofloxacin, 5 μg/ml gentamycin and 3 μg/ml glucose. At the end of the experiment, photomicrographs were taken, and the number of spheres per well counted and the mean and standard deviation calculated.
The dye excluding side population cells of Huh7 cells were isolated as described in Example 8. […] At the end of the experiment, photomicrographs were taken, and the number of spheres per well counted and the mean and standard deviation calculated.

[2] = test system: Huh7 hepatocellular carcinoma cells; experiment: Spheroid formation of Huh7 cells after antibody pre-treatment under regular adherence; details: pre-treatment with 10 μg/mL, then 5 days without treatment, vs control MAb; FIG. 13A-B
Description: In one experiment, 75,000 Huh7 hepatocellular carcinoma cells/well were first seeded into 6-well plates in MEMα with 10% FCS, serum starved overnight and grown for 60 hours in MEMα+0.5% Pannexin H in the presence of 10 μg/mL anti-progastrin monoclonal antibody MAb8 or control monoclonal antibody (P3X63Ag8, ATCC, Ref TIB-9). At the end of treatment, for each treatment group, 500 cells/well were plated into eight wells of ultra low-adherence 24-well plates in 500 μl of serum-free M11 medium containing bFGF and EGF, and grown for a further 5 days without treatment. At the end of this period, photographs were taken, the number of spheres per well was counted, and sphere surface was measured. […] Thereafter, an operator who was blinded to the identity of all wells counted the spheroids.
In a second experiment, 75,000 Huh7 hepatocellular carcinoma cells/well were first seeded into 6-well plates in MEMα with 10% FCS, serum starved overnight and grown for 60 hours in MEMα+0.5% Pannexin H in the presence of 10 μg/mL anti-progastrin monoclonal antibody MAb16 or a control monoclonal antibody (P3X63Ag8, ATCC, Ref TIB-9). […] At the end of this period, photographs were taken, the number of spheres per well was counted, and sphere surface was measured. […] Thereafter, an operator who was blinded to the identity of all wells counted the spheroids.

[3] = test system: liver cancer cells; experiment: Neutralizing activity with liver cancer cells; details: tests with liver cancer cells
Description: A specific test for assessing whether a particular anti-hPG antibody is neutralizing can be performed as follows. Huh7 hepatocellular carcinoma cells are seeded in ultra low-adherence 24-well plates (500 cells/well) in serum-free M11 medium. Cells are grown at 37° C. and treated twice daily for 7 days with the test anti-hPG antibody or a control, non-specific monoclonal antibody, at antibody concentrations of about 5 μg/mL. At the end of the experiment, photomicrographs are taken, and the number of spheres per well is counted and the median and percentile distribution calculated.

[4] = test system: PLC/PRL/5 hepatocellular carcinoma cells; experiment: Spheroid formation of PLC/PRL/5 cells under low adherence culture conditions; details: vs control MAb
Description: PLC/PRL/5 hepatocellular carcinoma cells were seeded in ultra low-adherence 24-well plates (220 cells/well) in serum-free M11 medium (DMEM/F12 with 20 ng/ml EGF, 10 ng/ml FGF, 20 μg/ml insulin, N2 supplement, 2 μg/ml ciprofloxacin, 5 μg/ml gentamycin and 3 μg/ml glucose). Cells were grown for 10 days at 37° C., with the daily addition of control or anti-hPG MAb3 monoclonal antibodies (1 μg/ml). At the end of the experiment, photomicrographs were taken, and the number of spheres per well counted and the mean and standard deviation calculated. In one experiment, PLC/PRL/5 hepatocellular carcinoma cells were seeded in ultra low-adherence 96-well plates (35 cells/well) in serum-free M11 medium (DMEM/F12 with 20 ng/ml EGF, 10 ng/ml FGF, 20 μg/ml insulin, N2 supplement, 2 μg/ml ciprofloxacin, 5 μg/ml gentamycin, and 3 μg/ml glucose). […] At the end of the experiment, photomicrographs were taken, and the number of spheres per well counted and the median and percentile distribution calculated. […] At the end of the experiment, photomicrographs were taken, and the number of spheres per well counted and the median and percentile distribution calculated. […] At the end of the experiment, photomicrographs were taken, and the number of spheres per well counted and the median and percentile distribution calculated.

Molecule	Number of spheroids formed [1]	Ability to grow as spheroids [2]	Neutralizing activity [3]	Number of spheroids formed ([4]; 6 μg/ml twice daily, 7 days, FIG. 15C)	Number of spheroids formed ([4]; 3 μg/ml twice daily, 8 days, FIG. 15A)
COc1cccc2c1C(=O)c1c(O)c3c(c(O)c1C2=O)C[C@@](O)(C(=O)CO)C[C@@H]3O[C@H]1C[C@H](N)[C@H](O)[C@H](C)O1 [Doxorubicin, doxorubicin]	reduce the number of spheroids				
MAb8: murine C-terminal anti-hPG monoclonal antibody, hybridoma 1C10D3B9, VH SEQ ID NO:59, VL SEQ ID NO:63 (antibody, V domains shown) VH: EVQLVESGGGLVKPGGSLKLSCAASGFTFTTYAMSWVRQTPEKRLEWVATISSGGTYTYYPDSVKGRFTISRDNAKNALYLQMSSLRSEDTAMYYCATQGNYSLDFWGQGTSLTVSS VL: DIVMTQAASSNPVTLGTSASISCRSSKSLRHTKGITFLYWYLQKPGQSPQLLIYQMSNLASGVPDRFSSSGSGTDFTLRISRVEAEDLGVYYCAQNLELPLTFGAGTKLELK		significantly reduced	exhibited neutralizing activity	significantly reduced	
MAb3: murine N-terminal anti-hPG monoclonal antibody, hybridoma 6B5B11C10, VH SEQ ID NO:12, VL SEQ ID NO:13 (antibody, V domains shown) VH: EVQLQQSGTVLARPGASVKMSCKASGYIFTSYWVHWVKQRPGQGLEWIGGFYPGNSDSRYNQKFKGKATLTAVTSASTAYMDLSSLTNEDSAVYFCTRRDSPQYWGQGTTLTVSS VL: DVLMTQTPLSLPVSLGDQASISCRSSQSIVHSNGNTYLEWYLQKPGQSPKLLIYKVSNRFSGVPDRFSGSGSGTDFTLKISRLEAEDLGVYYCFQGSHVPFTFGGGTKLEIK			exhibited neutralizing activity		
MAb19: murine N-terminal anti-hPG monoclonal antibody, hybridoma 1B3B4F11, VH SEQ ID NO:62, VL SEQ ID NO:66 (antibody, V domains shown) VH: DVQLQESGPGLVKPSQSLSLTCTVTGYSITSDYAWNWIRQFPGNKLEWMGYISFSGYTSYNPSLKSRISVTRDTSRNQFFLQLTSVTTEDTATYYCAREVNYGDSYHFDYWGQGTIVTVSS VL: QLALTQSSSASFSLGASAKLTCTLSSQHRTYTIEWYQQQSLKPPKYVMEVKKDGSHSTGHGIPDRFSGSSSGADRYLSISNIQPEDEAIYICGVGDAIKGQSVFVFGGGTKVTVL			exhibited neutralizing activity		significantly reduced
